In PMC6513101, “Experimentally guided computational antibody affinity maturation with de novo docking, modelling and rational design” (PLoS Computational Biology, 2019):
One block for each binder: values may come before it.

Key:
[1] = target: murine CCL20 (mouse) (UniProt O89093)
[2] = target: T1, biotinylated murine CCL20 (Mus musculus, UniProt O89093, biotin); assay: ELISA; capture ELISA: plate-coated anti-mouse Fc antibody (1 ug/mL) captures the antibody variant (5 ug/mL); biotinylated muCCL20 titrated from 0 to 600 nM, 1 h; details: both partners purified
T1 construct: CCL20, mouse; recombinant; m2 with biotin; also called biotinylated muCCL20; muCCL20 antigen; source: in-house, standard mammalian cell expression; biotinylated

[3] = target: T2, murine CCL20 (mouse, UniProt O89093 28-97); assay: SPR
T2 chain: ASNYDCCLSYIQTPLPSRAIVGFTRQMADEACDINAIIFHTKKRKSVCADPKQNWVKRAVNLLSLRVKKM

[4] = target: T3, murine CCL20 (Mus musculus, UniProt O89093); assay: SPR; Biacore T200; muCCL20 immobilised on a CM4 chip (~30 RU); Fab 0.02-50 nM at 100 uL/min; HBS-EP pH 7.4; 1:1 model; apparent KD = koff/kon; details: both partners purified
T3 construct: CCL20, mouse; recombinant; also called muCCL20; mouse CCL20; source: in-house, standard mammalian cell expression; purified

[5] = target: T2, murine CCL20; assay: SPR

B1: AB1-C1 (H:S28R) (antibody, V domains shown)
VH: QVQLQQSGAELAKPGSSVKISCKAYGRSFTTNSIHWIKQTTGQALEWTGYIAPGSGGARYNEKFKGKATLTVDKSSGTAYMQLSSLTPVDTAVYYCALNIGTNPFTYWGQGTLVTVSS
VL: DIVMTQGALPNPVPSGESVSITCRSSKSLLYSDGKTYLNWYLQRPGQSPQLLIYWMSTRASGVSDRFSGSGSGTDFTLKISGVEAEDVGVYYCQQGLEFPRTFGSGTKLEIK
fold decrease in antibody IC50 against parental AB1, CCR6 CHO-K1 β-arrestin assay with 4 nM muCCL20; blocks muCCL20 with muCCR6 [1]: 4 fold

B3: AB1 alanine variant 15 (L:D34A) (antibody, V domains shown)
VH: QVQLQQSGAELAKPGSSVKISCKAYGSSFTTNSIHWIKQTTGQALEWTGYIAPGSGGARYNEKFKGKATLTVDKSSGTAYMQLSSLTPVDTAVYYCALNIGTNPFTYWGQGTLVTVSS
VL: DIVMTQGALPNPVPSGESVSITCRSSKSLLYSAGKTYLNWYLQRPGQSPQLLIYWMSTRASGVSDRFSGSGSGTDFTLKISGVEAEDVGVYYCQQGLEFPRTFGSGTKLEIK
notes: IMGT numbering; IgG1, as m1; source: HEK293FT, transiently transfected, purified (Protein A)
binding result [2]: no binding (tested: 600 nM)

B5: AB1 alanine variant 11 (H:Y55A) (antibody, V domains shown)
VH: QVQLQQSGAELAKPGSSVKISCKAYGSSFTTNSIHWIKQTTGQALEWTGAIAPGSGGARYNEKFKGKATLTVDKSSGTAYMQLSSLTPVDTAVYYCALNIGTNPFTYWGQGTLVTVSS
VL: DIVMTQGALPNPVPSGESVSITCRSSKSLLYSDGKTYLNWYLQRPGQSPQLLIYWMSTRASGVSDRFSGSGSGTDFTLKISGVEAEDVGVYYCQQGLEFPRTFGSGTKLEIK
notes: as for B3
binding result [2]: no binding (tested: 600 nM)

B6: AB1 alanine variant 12 (H:N107A) (antibody, V domains shown)
VH: QVQLQQSGAELAKPGSSVKISCKAYGSSFTTNSIHWIKQTTGQALEWTGYIAPGSGGARYNEKFKGKATLTVDKSSGTAYMQLSSLTPVDTAVYYCALAIGTNPFTYWGQGTLVTVSS
VL: DIVMTQGALPNPVPSGESVSITCRSSKSLLYSDGKTYLNWYLQRPGQSPQLLIYWMSTRASGVSDRFSGSGSGTDFTLKISGVEAEDVGVYYCQQGLEFPRTFGSGTKLEIK
notes: as for B3
binding result [2]: no binding (tested: 600 nM)

B7: AB1 Fab fragment (Fab, V domains shown)
VH: QVQLQQSGAELAKPGSSVKISCKAYGSSFTTNSIHWIKQTTGQALEWTGYIAPGSGGARYNEKFKGKATLTVDKSSGTAYMQLSSLTPVDTAVYYCALNIGTNPFTYWGQGTLVTVSS
VL: DIVMTQGALPNPVPSGESVSITCRSSKSLLYSDGKTYLNWYLQRPGQSPQLLIYWMSTRASGVSDRFSGSGSGTDFTLKISGVEAEDVGVYYCQQGLEFPRTFGSGTKLEIK
notes: Fab of m1; also called parental AB1 (Fab); source: papain cleavage of the purified antibody; purified by anion and cation exchange chromatography
Kd [3]: 9.1 nM | binding result [4]: binds | koff [5]: 0.0077 s⁻¹

B8: AB1-C1-16 (H:S28R, L:G35Y) (antibody, V domains shown)
VH: QVQLQQSGAELAKPGSSVKISCKAYGRSFTTNSIHWIKQTTGQALEWTGYIAPGSGGARYNEKFKGKATLTVDKSSGTAYMQLSSLTPVDTAVYYCALNIGTNPFTYWGQGTLVTVSS
VL: DIVMTQGALPNPVPSGESVSITCRSSKSLLYSDYKTYLNWYLQRPGQSPQLLIYWMSTRASGVSDRFSGSGSGTDFTLKISGVEAEDVGVYYCQQGLEFPRTFGSGTKLEIK
notes: IMGT numbering; IgG1, as m1; also called clone 1–16; combination clone; source: HEK293FT, transiently transfected, purified (Protein A)
binding result [2]: binds | fold decrease in antibody IC50 against parental AB1, CCR6 CHO-K1 β-arrestin assay with 4 nM muCCL20; blocks muCCL20 with muCCR6 [1]: 4 fold

B9: AB1 alanine variant 9 (H:T35A, H:N107A, L:R116A) (antibody, V domains shown)
VH: QVQLQQSGAELAKPGSSVKISCKAYGSSFATNSIHWIKQTTGQALEWTGYIAPGSGGARYNEKFKGKATLTVDKSSGTAYMQLSSLTPVDTAVYYCALAIGTNPFTYWGQGTLVTVSS
VL: DIVMTQGALPNPVPSGESVSITCRSSKSLLYSDGKTYLNWYLQRPGQSPQLLIYWMSTRASGVSDRFSGSGSGTDFTLKISGVEAEDVGVYYCQQGLEFPATFGSGTKLEIK
notes: as for B3
binding result [2]: no binding (tested: 600 nM)

B10: AB1 alanine variant 17 (L:Y38A) (antibody, V domains shown)
VH: QVQLQQSGAELAKPGSSVKISCKAYGSSFTTNSIHWIKQTTGQALEWTGYIAPGSGGARYNEKFKGKATLTVDKSSGTAYMQLSSLTPVDTAVYYCALNIGTNPFTYWGQGTLVTVSS
VL: DIVMTQGALPNPVPSGESVSITCRSSKSLLYSDGKTALNWYLQRPGQSPQLLIYWMSTRASGVSDRFSGSGSGTDFTLKISGVEAEDVGVYYCQQGLEFPRTFGSGTKLEIK
notes: as for B3
binding result [2]: no binding (tested: 600 nM)

B12: AB1 alanine variant 6 (H:S29A, L:Y31A, L:Y38A) (antibody, V domains shown)
VH: QVQLQQSGAELAKPGSSVKISCKAYGSAFTTNSIHWIKQTTGQALEWTGYIAPGSGGARYNEKFKGKATLTVDKSSGTAYMQLSSLTPVDTAVYYCALNIGTNPFTYWGQGTLVTVSS
VL: DIVMTQGALPNPVPSGESVSITCRSSKSLLASDGKTALNWYLQRPGQSPQLLIYWMSTRASGVSDRFSGSGSGTDFTLKISGVEAEDVGVYYCQQGLEFPRTFGSGTKLEIK
notes: as for B3
binding result [2]: no binding (tested: 600 nM)

B13: AB1-C16 Fab fragment (L:G35Y) (Fab, V domains shown)
VH: QVQLQQSGAELAKPGSSVKISCKAYGSSFTTNSIHWIKQTTGQALEWTGYIAPGSGGARYNEKFKGKATLTVDKSSGTAYMQLSSLTPVDTAVYYCALNIGTNPFTYWGQGTLVTVSS
VL: DIVMTQGALPNPVPSGESVSITCRSSKSLLYSDYKTYLNWYLQRPGQSPQLLIYWMSTRASGVSDRFSGSGSGTDFTLKISGVEAEDVGVYYCQQGLEFPRTFGSGTKLEIK
notes: IMGT numbering; Fab of m43; source: papain cleavage of the purified antibody; purified by anion and cation exchange chromatography
Kd [3]: 8.4 nM | binding result [4]: binds | koff [5]: 0.007 s⁻¹

The next lines start with the values.

binding result [2]: no binding (tested: 600 nM)
B2: AB1 alanine variant 8 (H:T110A, L:Y31A, L:D34A) (antibody, V domains shown)
VH: QVQLQQSGAELAKPGSSVKISCKAYGSSFTTNSIHWIKQTTGQALEWTGYIAPGSGGARYNEKFKGKATLTVDKSSGTAYMQLSSLTPVDTAVYYCALNIGANPFTYWGQGTLVTVSS
VL: DIVMTQGALPNPVPSGESVSITCRSSKSLLASAGKTYLNWYLQRPGQSPQLLIYWMSTRASGVSDRFSGSGSGTDFTLKISGVEAEDVGVYYCQQGLEFPRTFGSGTKLEIK
notes: as for B3

Kd [3]: 2.3 nM | fold improvement in KD against parental AB1 [4]: 4 fold | koff [5]: 0.0029 s⁻¹
B4: AB1-C1 Fab fragment (H:S28R) (Fab, V domains shown)
VH: QVQLQQSGAELAKPGSSVKISCKAYGRSFTTNSIHWIKQTTGQALEWTGYIAPGSGGARYNEKFKGKATLTVDKSSGTAYMQLSSLTPVDTAVYYCALNIGTNPFTYWGQGTLVTVSS
VL: DIVMTQGALPNPVPSGESVSITCRSSKSLLYSDGKTYLNWYLQRPGQSPQLLIYWMSTRASGVSDRFSGSGSGTDFTLKISGVEAEDVGVYYCQQGLEFPRTFGSGTKLEIK
notes: IMGT numbering; Fab of m28; also called Clone AB1-C1; source: papain cleavage of the purified antibody; purified by anion and cation exchange chromatography

binding result [2]: binds | fold decrease in antibody IC50 against parental AB1, CCR6 CHO-K1 β-arrestin assay with 4 nM muCCL20; blocks muCCL20 with muCCR6 [1]: 2 fold
B11: AB1-C16 (L:G35Y) (antibody, V domains shown)
VH: QVQLQQSGAELAKPGSSVKISCKAYGSSFTTNSIHWIKQTTGQALEWTGYIAPGSGGARYNEKFKGKATLTVDKSSGTAYMQLSSLTPVDTAVYYCALNIGTNPFTYWGQGTLVTVSS
VL: DIVMTQGALPNPVPSGESVSITCRSSKSLLYSDYKTYLNWYLQRPGQSPQLLIYWMSTRASGVSDRFSGSGSGTDFTLKISGVEAEDVGVYYCQQGLEFPRTFGSGTKLEIK
notes: IMGT numbering; IgG1, as m1; also called clone 16; VL clone 16; source: HEK293FT, transiently transfected, purified (Protein A)

Kd [3]: 2.8 nM | binding result [4]: binds | koff [5]: 0.0042 s⁻¹
B14: AB1-C1-16 Fab fragment (H:S28R, L:G35Y) (Fab, V domains shown)
VH: QVQLQQSGAELAKPGSSVKISCKAYGRSFTTNSIHWIKQTTGQALEWTGYIAPGSGGARYNEKFKGKATLTVDKSSGTAYMQLSSLTPVDTAVYYCALNIGTNPFTYWGQGTLVTVSS
VL: DIVMTQGALPNPVPSGESVSITCRSSKSLLYSDYKTYLNWYLQRPGQSPQLLIYWMSTRASGVSDRFSGSGSGTDFTLKISGVEAEDVGVYYCQQGLEFPRTFGSGTKLEIK
notes: IMGT numbering; Fab of m48; also called combination clone AB1-C1-16; source: papain cleavage of the purified antibody; purified by anion and cation exchange chromatography
